This note sets out measurements from the DeepSol protein solubility set.

The nature of the data set: soluble on expression in E. coli; label from the status in PepcDB or PDB records.
On to “GPGSMMEYADAYVGGGGRLRPGAQGSTTATGASRPYLEQRTVAPVTSALGQELDRLVGGTLAAQEYRDRLEALTRSVQASDEKVLNLTRLVKLSQSIQEEKEADLRRQNDELRARLKRQEQLTAQLQRQLEGMQGAVDAQALHHVVERLEGQMSACRGKQEEQWVAVQQRIGELEDRLQRASTCTAERCEERLMQLDERLQQVTQSTADATNQWAKRNFVRFKEQVDSLRADLDDVRGGQKELKSTVQSASCRAEIEYKKVLLLLQQKTKEADALTSLVEKELQHLQKVAHRHQILASKDITPAFEFDEKPYDALKFAAGEGKRRGAEAAAERRRR”, for which the “soluble on expression in E. coli” value is “not soluble”.
To “FFFSGGVPLDASLFEHKKLDPTQVRQVLQLVLWKLESLRQWEKERITGCIQAVAEHLQLKLRDVMPLMFPAITGHASSVSVLDAMEILGADLSRYRLRQALELLGGASKKETKEWEKIRDAIPG” belongs “not soluble”.
On to “MSVHESSNEINDEPMDTDSNIPESSGNDPSMEVDDEPESSDAADSFKRFERLLQKTENFSHCLSSGDAKLATGAPVDTKKRGRPSKKNGIDGDHRHRKTEQEEDEEMVADAIKSDDLVIFDKSPFYIENGEMRDYQVRGLNWLASLQHNKINGILADEMGLGKTLQTISMIGYMKHYKNKASPHLVIVPKSTLQNWANEFKKWCPSINAVVLIGDEAARNQVLRDVILPQKFDVCCTTYEMMLKVKTQLKKLNWRYIIIDEAHRIKNEKSKLSETVRELNSENRLLITGTPLQNNLHELWALLNFLLPDIFTSSDDFDSWFSNDAMSGNTDLVQRLHKVLQPFLLRRIKSDVEKSLLPKKEVKVYVGLSKMQREWYTKVLMKDIDIINGAGKVEKARLMNILMHLRKCVNHPYLFDGAEPGPPFTTDQHLVDNSGKMVVLDKLLMKFKEQGSRVLIFSQFSRMLDLLEDFCWWRHYEYCRLDGSTPHEDRSNAIEAYNAPDSKKFIFMLTTRAGGLGINLATADVVIIYDSDWNPQSDLQAMDRAHRIGQKKQVRVFRLITENTVDERIIEKAEAKLRLDNIVIQQGRMSEAQKTLGKGDMISMIRHGAEQVFAAKDSTISDDDIDTILEKAEVKTAELNEKMGKIDENNLRNMTFEDNAKFTVYQFEGENYKAKQADGMGHFWIEPPKRERKANYQVDLYYKEAMRAGNPTEKQSKAPRPKLPQVFDFQFYPRRLFELLDKEIYHYRKTIGYVAERPKDVPPKEAEKRQAEEQKLINNARPLTDKEQEEKAELLTQSVTDWTKREFQQFVRGNEKYGREDLESIAKEMERPLEEIQSYAKVFWERIEELQDSEKVLSQIEKGEARIQRKYAVKKALDAKIAKYKAPFQQLRISYGTNKGKTYTEEEDRFLVCETHRLGHDKENVFEELRQSVRMAPQFRFDWFLKSRTAMELQRRCNTLITLIEREMGEVVESKPVIVTAADKKKSVAKDLSKSSGTPTAKKVKATPK”, for which the “soluble on expression in E. coli” value was “not soluble”.
To “MGSDKIHHHHHHMEAAAQFFVESPDVVYGPEAIEAQYEYRTTRVSREGGVLKVHPTSTRFTFRTARQVPRLGVMLVGWGGNNGSTLTAAVLANRLRLSWPTRSGRKEANYYGSLTQAGTVSLGLDAEGQEVFVPFSAVLPMVAPNDLVFDGWDISSLNLAEAMRRAKVLDWGLQEQLWPHMEALRPRPSVYIPEFIAANQSARADNLIPGSRAQQLEQIRRDIRDFRSSAGLDKVIVLWTANTERFCEVIPGLNDTAENLLRTIELGLEVSPSTLFAVASILEGCAFLNGSPQNTLVPGALELAWQHRVFVGGDDFKSGQTKVKSVLVDFLIGSGLKTMSIVSYNHLGNNDGENLSAPLQFRSKEVSKSNVVDDMVQSNPVLYTPGEEPDHCVVIKYVPYVGDSKRALDEYTSELMLGGTNTLVLHNTCEDSLLAAPIMLDLALLTELCQRVSFCTDMDPEPQTFHPVLSLLSFLFKAPLVPPGSPVVNALFRQRSCIENILRACVGLPPQNHMLLEHKMERPGPSLKRVGPVAATYPMLNKKGPVPAATNGCTGDANGHLQ” belongs “not soluble”; to “MSDTNYAVIYDLHSHTTASDGCLTPEALVHRAVEMRVGTLAITDHDTTAAIAPAREEISRSGLALNLIPGVEISTVWENHEIHIVGLNIDITHPLMCEFLAQQTERRNQRAQLIAERLEKAQIPGALEGAQRLAQGGAVTRGHFARFLVECGKASSMADVFKKYLARGKTGYVPPQWCTIEQAIDVIHHSGGKAVLAHPGRYNLSAKWLKRLVAHFAEHHGDAMEVAQCQQSPNERTQLAALARQHHLWASQGSDFHQPCPWIELGRKLWLPAGVEGVWQLWEQPQNTTERELLEHHHHHH”, “not soluble”; to “MSLEFKGELTFEQELALSDMTSKENGLLHAETGFGKTVLGAALISERKTKTIILVHNKQLLDQWLDRLNCFLTFEEEEAIRYTASGREKVIGYVGQYGGTKKWLSKLVDVVMIQSLFKLENSQSLLDEYEMMIVDECHHVSALMFEKVVAQFRGKYLYGLTATPERKNGHEPIVFQRIGEILHTADKRETDFKRQLQLRFTSFGHLEIEKTKASNFIQLSDWIATDSVRNQMILKDILAQVAEGRNILVLVNRIQQIDVFEKLLKEKEVDDCYIISGKTKVRERTSLLETLEQLDKGFVLLSTGKYIGEGFDLPQLDTLILAAPFSWKNNLIQYAGRIHRNYKDKSLVRIFDYVDIHVPYLEKMFQKRQVAYRKMDYRVIEGEGHHHHHH”, “not soluble”.
For “MGSDKIHHHHHHASCEKDPDMGKLDDNYLVYTNYDKQANFKDFSTFYLADKILVISDSKEPEYLEGEGAEQILAAYTENMEAKGYQPAADKESADLGIQVSYIASTYYFTGYTQPEWWWGYPGYWGPSYWGNWGGWYYPYAVTYSYSTNSFITEMVNLKADEGEGKKLPVVWTSYLTGFETGSKAINRTLAIEAVNQSFTQSPYLTNK”, the “soluble on expression in E. coli” value is given as “not soluble”.
To “MGSDKIHHHHHHMPRQWNTDALSAGHLSCSSFFPFALTNKIIGRIKKKNNRMKGNNQLCTLLKLCLLSMLAFGTAKAQIQIVGAPSMKALDDSPNRLQVFMLHTLNPASVILRFAGAGTGKLYRYTTKAIEAEEVTTATYSDGMWTLTAPQLNCGYFVSGDGRLPQYYWISNYADYALFVSAVTGKPSETSPCISMDLAVDAAIRPIPYFQPNGIPRRLDRHVQISYPDMEWDAEARLFRPSTKEVEVEASDDERTLVVSASLADAVYTIHGDRFTKELSLPFTAVATDEILTPKVEVYAFVDKVDGGSAIGDNTPEEGDASLVSAPFTVMLAAYGNEPSAANFVWRIYRTEEGAENSVLVYNGTSTEFTFRQAGIYSILLQATNRTGTCTDEVLLENYFKVAESSLIVPNAFSPYGSPGVNDVFRVKHSSLVHFDGRIFDSWGKQIFRWTNPDEGWDGKYRGKMMPTGVYYYVIEAEGADGIKYKRKGDINILRPAYEIPLGGNLPR” belongs “not soluble”.
For the sequence “MTKMSITVNQTVLHQLVKNVDGDSIKMESVLRDELLSITPEVEQMMLQLHQSYQNKAKAFGVFQEKSIFAQHLNRLLEQEIEFLGFSQYSTKLLADELGKYNFAESGTLILCQYNFLATDYLFIALLDSRHSMLVDEHLDIRRTEYLDITQFDIAARINLTDLQVNANSNRYLTFIKGRVGRKISDFFMDFLGAEEGLNPQVQNQCLLQAVSDYCDQGELNKEQTQAVKKQVFEYCKGQLSNGNNIELRELSDSLPTLNEQPFVVFTEKQNYGLEESIPPIRSTLKSLTKFSGSGKGVTLSFDAELLNTRIQWDPMTDTLTIKGLPPNLKDQLQKALKSENLEHHHHHH”, the “soluble on expression in E. coli” value is “soluble”.
To “MTEHLKSNTMVLPLKKGAQKMTTITLKVSEADKTFMKAMAKFEGVSLSELIRTKTLEALEDEYDARVADLAYQEYLEDLEKGVEPITWEEMMHDLGLKDE” belongs “not soluble”; to “DDSLGEAVTTRAEALTIPAVLRARNLLSTTVARTPLVCDGTLPPFVPVAAPPGAATMQTPFHRMLATADDLLFNGVACWALDRDESGTCIGAIHIPLDTWQIEENTVRVNGKAVDPMEVCIFVGIHGGLLTHASETFTDARNLVRAAARVAQNPAALIELRQTNNAQLSPDDVDRIINGYVAARRGRNSGVGFSSSGLEVHEHEMAKENLLIEGRNAAAVDVARAMNVPAAFIDATVGGTSLSYQNAASRMIELVTFGVEPLMSAIEARLNQPDMHADHLANPLKFDPAALLDAIPTTPTIGAQPHGENS”, “soluble”.
To “MAVYRTVQVNFWQDDFVLDLTPEERYFYVYLLTCSKTTQCGIFPFPKRLAEMETGYNRETVDKLVQRFVDYGKILYDAETRELFVLNWLRYNPVTNTNVEKCVLRELKGVKNKEFVHMFLQKCVEEELNVPMLLAHFGMPSDLAVDDVEPVCEEAEEEEVIEEETGSRVFSFYEQHFGSLSPHTVEELSAWMEDLSEELVLKALQIAFENNKRTVAYVKGILRGWHGKGFTKVSEVEADTASFRKKDLSVSTGETEEFLARCEEWEKNAPSEEELQRFLAERGWRP” belongs “soluble”; to “MGSDKIHHHHHHMEEQREILEQLKKTLQMLTVEPSKNNQIANEEKEKKENENSWCILEHNYEDIAQEFIDFIYKNPTTYHVVSFFAELLDKHNFKYLSEKSNWQDSIGEDGGKFYTIRNGTNLSAFILGKNWRAEKGVGVIGSHVDALTVKLKPVSFKDTAEGYGRIAVAPYGGTLNELWLDRDLGIGGRLLYKKKGTNEIKSALVDSTPLPVCRIPSLAPHFGKPAEGPFDKEDQTIPVIGFPTPDEEGNEPPTDDEKKSPLFGKHCIHLLRYVAKLAGVEVSELIQMDLDLFDVQKGTIGGIGKHFLFAPRLDDRLCSFAAMIALICYAKDVNTEESDLFSTVTLYDNEEIGSLTRQGAKGGLLESVVERSSSAFTKKPVDLHTVWANSIILSADVNHLYNPNFPEVYLKNHFPVPNVGITLSLDPNGHMATDVVGTALVEELARRNGDKVQYFQIKNNSRSGGTIGPSLASQTGARTIDLGIAQLSMHSIRAATGSKDVGLGVKFFNGFFKHWRSVYDEFGEL”, “not soluble”.
To “MTAHLAAINGLRLKAECSNCGVRELCLSVGMSLTDTDRLSAIIPQPIKVKKGAALYHAGDPLQSLYAVRFGFFKTTISSQDGRDQLTGFQMSGELLGCDAISNDCHVCDAIALEDSEVCPIRFTHLERLSREMPSLQHNLNRALSKEIVRDHEMLLLLGNLNAEERMAAFLLNLSGRMFNRGYSATAFVLRMTREDIGSYLGLRLETICRAIANLRNLRIVSISGRQVEILDLNRLQALIHGCSYRAKSL” belongs “not soluble”.
For the sequence “MGSDKIHHHHHHMNLRVLGKILLDEMRNGDVAIVEYSSSSPIHRLVWGEIILKYVDRYEFVIDDFFGIGDVMFRTYLRRISSPDEYTKIMEKTKNIKAIKIGPGKISYASKVEELPLTYNLSEFIKLYYPIIRDILAKSSKRVFFITLGLSQYLYLGEAKALETILLSRSVLPIEDWTSIYFLNTDVAPEKAVAALEEISPIVIQVRNNEILVKKI”, the “soluble on expression in E. coli” value is “not soluble”.
Take “MGEQPIFTTRAHVFQIDPNTKKNWMPASKQAVTVSYFYDVTRNSYRIISVDGAKVIINSTITPNMTFTKTSQKFGQWADSRANTVFGLGFSSEQQLTKFAEKFQEVKEAAKIAKDKTQEKIETSSNHSQASSVNGTDDEKASHAGPANTHLKSENDKLKIALTQSAANVKKWEIELQTLRESNARLTTALQESAASVEQWKRQFSICRDENDRLRNKIDELEEQCSEINREKEKNTQLKRRIEELEAELREKETELKDLRKQSEIIPQLMSECEYVSEKLEAAERDNQNLEDKVRSLKTDIEESKYRQRHLKVELKSFLEVLDGKIDDLHDFRRGLSKLGTDN”: the “soluble on expression in E. coli” value is reported as “not soluble”.
Consider “MAHHHHHHMPPKGQRSLNIAQPLSSSRAQSANAILRSAASAMATSGPAASKSSPRTSCFPRAFMSTGNARNEMEAYYEQLLSQDRVDGVDAFGKNGIHLLCKGLGIKPESFEMYTLIWKMGVTRGCCIPRADWLKTIYTYKIEQPMDLKLVLVEWVKESRGDSFTEFYNDLYDYIRGEEARLMPYGTAVEAWAVLFQNEPRIIPWIKWYSDIYRREVTRDVWRQIGIFLSAVPNIEAYNVEDRWSCAIDSYVEWCKVSG”, for which the “soluble on expression in E. coli” value was “not soluble”.
